Assay results taken from PMC11554844, “BEACH domain proteins function as cargo-sorting adaptors in secretory and endocytic pathways” (The Journal of Cell Biology, 2024).

Legend:
Test in all cases: pull-down; GST-CTLA4 (201–215) immobilised on glutathione-sepharose beads, incubated overnight at 4°C with purified protein (1 µg MBP fusion, 1 µg NBEAL2, 0.2 µg LRBA, or purified 3xFlag-EGFP-NBEAL2 fragment); washed six times in 50 mM Tris-HCl pH 7.4, 150 mM NaCl, 1% Triton X-100; detected by blot (anti-NBEAL2, anti-LRBA, anti-Flag, anti-MBP)
Conditions in all cases: both partners purified
[1] = target: T1, Purified full-length untagged NBEAL2 (human, UniProt Q6ZNJ1-1 1-2754)
T1 construct: NBEAL2, human; also called 3xFlag-EGFP-SUMOstar-NBEAL2 after SUMOstar protease; source: FreeStyle 293-F, transiently transfected, purified (GFP-Trap agarose, eluted with SUMOstar protease); not shown: 3xFlag, N-terminal, cleaved; EGFP, N-terminal, cleaved; SUMOstar, N-terminal, cleaved

[2] = target: T2, 3xFlag-EGFP-NBEAL2(1792-2754) (human, UniProt Q6ZNJ1-1 1792-2754)
T2 construct: NBEAL2, human, C-terminal fragment with the PH-BEACH-WD40 domains; The legend's upper limit 2794 differs from the plasmid's name; also called C-terminal fragment of NBEAL2; C-terminal (PH-BEACH-WD40 domains) fragment of NBEAL2; source: purified; not shown: 3xFlag, N-terminal, kept; EGFP, N-terminal, kept
T2 sequence (Q6ZNJ1 1792-2754): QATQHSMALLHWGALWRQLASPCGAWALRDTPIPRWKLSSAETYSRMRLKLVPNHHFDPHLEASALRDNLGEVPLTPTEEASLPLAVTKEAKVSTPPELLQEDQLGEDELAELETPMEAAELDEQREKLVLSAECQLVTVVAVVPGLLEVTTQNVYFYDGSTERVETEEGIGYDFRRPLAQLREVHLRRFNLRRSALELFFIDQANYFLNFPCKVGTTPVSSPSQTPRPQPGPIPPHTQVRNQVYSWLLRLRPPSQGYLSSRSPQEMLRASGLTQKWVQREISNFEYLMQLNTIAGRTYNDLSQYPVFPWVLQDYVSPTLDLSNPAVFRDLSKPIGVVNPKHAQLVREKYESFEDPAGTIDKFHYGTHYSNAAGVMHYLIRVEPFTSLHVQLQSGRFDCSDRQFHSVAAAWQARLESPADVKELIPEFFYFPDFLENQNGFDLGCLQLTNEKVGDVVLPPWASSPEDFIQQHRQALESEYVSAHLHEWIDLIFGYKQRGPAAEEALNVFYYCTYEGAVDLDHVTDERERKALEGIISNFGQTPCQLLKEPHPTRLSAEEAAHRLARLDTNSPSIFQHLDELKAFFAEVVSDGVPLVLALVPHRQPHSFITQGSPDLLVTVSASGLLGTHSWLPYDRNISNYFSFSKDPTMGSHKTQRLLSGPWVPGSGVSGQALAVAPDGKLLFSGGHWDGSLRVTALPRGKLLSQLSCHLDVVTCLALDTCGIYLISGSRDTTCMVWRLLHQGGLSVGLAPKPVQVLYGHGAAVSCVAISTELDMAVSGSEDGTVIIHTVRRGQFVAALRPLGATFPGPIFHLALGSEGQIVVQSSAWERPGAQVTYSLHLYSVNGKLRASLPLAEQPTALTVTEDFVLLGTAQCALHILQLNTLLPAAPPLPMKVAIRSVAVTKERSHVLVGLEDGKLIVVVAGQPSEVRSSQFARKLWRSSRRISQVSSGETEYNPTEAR

[3] = target: T3, Purified full-length untagged LRBA (human, UniProt P50851-1 1-2863)
T3 construct: LRBA, human; also called 3xFlag-EGFP-SUMOstar-LRBA after SUMOstar protease; source: FreeStyle 293-F, transiently transfected, purified (GFP-Trap agarose, eluted with SUMOstar protease); not shown: 3xFlag, N-terminal, cleaved; EGFP, N-terminal, cleaved; SUMOstar, N-terminal, cleaved
T3 sequence (P50851 whole entry): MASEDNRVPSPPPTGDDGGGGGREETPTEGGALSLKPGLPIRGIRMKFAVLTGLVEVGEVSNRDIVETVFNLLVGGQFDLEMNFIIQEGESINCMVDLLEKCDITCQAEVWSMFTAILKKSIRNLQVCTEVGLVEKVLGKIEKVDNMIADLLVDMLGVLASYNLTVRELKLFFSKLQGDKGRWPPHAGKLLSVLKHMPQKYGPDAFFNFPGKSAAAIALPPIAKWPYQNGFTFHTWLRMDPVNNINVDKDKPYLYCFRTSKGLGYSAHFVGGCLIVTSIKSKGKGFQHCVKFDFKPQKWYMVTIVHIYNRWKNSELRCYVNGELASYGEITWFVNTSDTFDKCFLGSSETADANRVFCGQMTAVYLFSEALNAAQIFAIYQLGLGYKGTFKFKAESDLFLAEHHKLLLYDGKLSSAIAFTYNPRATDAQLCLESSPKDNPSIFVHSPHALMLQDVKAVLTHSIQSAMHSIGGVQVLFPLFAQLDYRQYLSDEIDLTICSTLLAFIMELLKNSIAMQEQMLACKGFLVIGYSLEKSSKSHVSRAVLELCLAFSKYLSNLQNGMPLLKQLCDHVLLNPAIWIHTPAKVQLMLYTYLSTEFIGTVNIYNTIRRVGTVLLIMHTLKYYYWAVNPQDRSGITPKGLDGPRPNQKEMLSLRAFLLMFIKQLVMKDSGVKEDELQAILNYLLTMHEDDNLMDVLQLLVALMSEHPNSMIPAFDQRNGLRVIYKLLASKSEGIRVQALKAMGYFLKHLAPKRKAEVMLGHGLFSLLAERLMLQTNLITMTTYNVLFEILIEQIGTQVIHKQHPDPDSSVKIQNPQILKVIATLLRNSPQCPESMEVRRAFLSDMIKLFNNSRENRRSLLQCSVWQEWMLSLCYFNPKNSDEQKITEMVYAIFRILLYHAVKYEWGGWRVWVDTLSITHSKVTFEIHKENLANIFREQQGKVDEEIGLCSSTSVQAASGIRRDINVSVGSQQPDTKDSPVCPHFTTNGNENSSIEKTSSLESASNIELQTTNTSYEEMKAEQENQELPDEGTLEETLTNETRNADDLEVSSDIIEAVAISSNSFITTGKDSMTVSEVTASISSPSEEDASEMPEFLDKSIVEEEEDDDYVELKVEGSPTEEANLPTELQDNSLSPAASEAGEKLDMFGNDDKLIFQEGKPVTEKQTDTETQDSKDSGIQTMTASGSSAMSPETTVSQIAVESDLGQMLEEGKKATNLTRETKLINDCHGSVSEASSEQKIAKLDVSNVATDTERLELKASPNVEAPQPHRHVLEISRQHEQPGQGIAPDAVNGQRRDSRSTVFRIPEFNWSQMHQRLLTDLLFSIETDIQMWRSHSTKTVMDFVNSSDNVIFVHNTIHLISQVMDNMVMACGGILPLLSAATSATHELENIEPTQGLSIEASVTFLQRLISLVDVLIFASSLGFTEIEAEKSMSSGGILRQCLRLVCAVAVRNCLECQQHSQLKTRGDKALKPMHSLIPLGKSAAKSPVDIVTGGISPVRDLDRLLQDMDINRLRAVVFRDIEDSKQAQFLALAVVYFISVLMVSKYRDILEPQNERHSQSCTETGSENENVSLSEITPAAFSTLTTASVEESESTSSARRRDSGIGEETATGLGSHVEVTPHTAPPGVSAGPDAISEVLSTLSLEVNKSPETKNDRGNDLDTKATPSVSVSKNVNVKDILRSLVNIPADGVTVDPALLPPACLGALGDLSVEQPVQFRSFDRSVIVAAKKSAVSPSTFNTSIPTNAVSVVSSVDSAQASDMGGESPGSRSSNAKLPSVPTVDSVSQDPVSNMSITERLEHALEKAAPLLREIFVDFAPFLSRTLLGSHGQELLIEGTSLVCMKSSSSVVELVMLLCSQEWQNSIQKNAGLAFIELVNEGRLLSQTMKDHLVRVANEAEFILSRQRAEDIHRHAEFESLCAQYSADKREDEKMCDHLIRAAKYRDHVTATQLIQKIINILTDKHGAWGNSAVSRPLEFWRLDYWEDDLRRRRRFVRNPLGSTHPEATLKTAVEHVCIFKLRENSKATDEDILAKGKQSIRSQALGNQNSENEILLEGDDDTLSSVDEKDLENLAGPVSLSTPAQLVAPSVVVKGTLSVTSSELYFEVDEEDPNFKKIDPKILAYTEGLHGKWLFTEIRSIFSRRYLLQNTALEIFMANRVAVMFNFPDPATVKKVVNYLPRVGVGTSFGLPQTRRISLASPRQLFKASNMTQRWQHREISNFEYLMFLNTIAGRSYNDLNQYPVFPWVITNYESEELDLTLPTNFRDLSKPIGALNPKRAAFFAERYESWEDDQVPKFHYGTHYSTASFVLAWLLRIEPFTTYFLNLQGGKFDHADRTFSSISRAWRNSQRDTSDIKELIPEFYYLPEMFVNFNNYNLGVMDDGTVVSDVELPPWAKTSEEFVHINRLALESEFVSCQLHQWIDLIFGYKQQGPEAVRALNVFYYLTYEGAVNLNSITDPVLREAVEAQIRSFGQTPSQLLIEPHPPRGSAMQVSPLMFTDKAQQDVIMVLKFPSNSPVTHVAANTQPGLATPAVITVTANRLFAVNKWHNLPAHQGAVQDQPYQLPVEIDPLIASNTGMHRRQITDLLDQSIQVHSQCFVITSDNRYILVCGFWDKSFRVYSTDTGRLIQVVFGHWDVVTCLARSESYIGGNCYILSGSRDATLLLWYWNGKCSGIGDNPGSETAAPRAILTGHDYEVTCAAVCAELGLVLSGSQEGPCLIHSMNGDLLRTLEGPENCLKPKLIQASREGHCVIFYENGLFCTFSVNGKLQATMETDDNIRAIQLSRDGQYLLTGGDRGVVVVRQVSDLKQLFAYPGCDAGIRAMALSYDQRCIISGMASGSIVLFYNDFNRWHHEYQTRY

Measured: binding result

B1: GST-CTLA4 (201–215) (domain or fragment, human, UniProt P16410 201-215, looked up)
chain: YVKMPPTEPECEKQF
notes: source: E. coli BL21(DE3), purified on Glutathione Sepharose 4B beads
binds: all assays above
